For assay [1], the target named is a native host protein. Description: Kd determination, method not stated; reference wild type PmSLP-1 (SEQ ID NO 2).
The target in assay [2] is a native host protein. Nature of the assay: Kd determination, method not stated.

For orientation: Kd means the equilibrium constant for the complex coming apart. The low end stands for higher affinity, the high end for lower affinity. As to “modified PmSLP-1 having SEQ. ID NO: 65 (V214D mutation)”, in the assay with a native host protein [1], the factor by which the Kd exceeds the Kd of the native non-modified PmSLP is more than 500 fold. The Kd with a native host protein [2] was less than 2000 nM.
The matching figures for “modified PmSLP-1 having SEQ. ID NO: 67 (E240A mutation)”: more than 500 fold and less than 2000 nM.
With “wild type PmSLP-1 protein (SEQ. ID NO: 2)”, the Kd with a native host protein [2] came to 30 nM.

Values taken from US20250263448A1.
